{"source": "paper PMC1635251", "experiment_in_all_cases": "filter binding", "key": {"[1]": {"molecular_target": "T1, HIV-1 reverse transcriptase p66/p51 (HIV-1, UniProt P03366;P03366 600-1159;600-1039)"}, "[2]": {"molecular_target": "T1, HIV-1 reverse transcriptase p66/p51", "remark": "listed apart in the source"}, "[3]": {"molecular_target": "HIV-2 reverse transcriptase (HIV-2, UniProt P04584;P04584 613-1171;613-1051)", "sequence (P04584 613-1171, chain 1 of 2)": "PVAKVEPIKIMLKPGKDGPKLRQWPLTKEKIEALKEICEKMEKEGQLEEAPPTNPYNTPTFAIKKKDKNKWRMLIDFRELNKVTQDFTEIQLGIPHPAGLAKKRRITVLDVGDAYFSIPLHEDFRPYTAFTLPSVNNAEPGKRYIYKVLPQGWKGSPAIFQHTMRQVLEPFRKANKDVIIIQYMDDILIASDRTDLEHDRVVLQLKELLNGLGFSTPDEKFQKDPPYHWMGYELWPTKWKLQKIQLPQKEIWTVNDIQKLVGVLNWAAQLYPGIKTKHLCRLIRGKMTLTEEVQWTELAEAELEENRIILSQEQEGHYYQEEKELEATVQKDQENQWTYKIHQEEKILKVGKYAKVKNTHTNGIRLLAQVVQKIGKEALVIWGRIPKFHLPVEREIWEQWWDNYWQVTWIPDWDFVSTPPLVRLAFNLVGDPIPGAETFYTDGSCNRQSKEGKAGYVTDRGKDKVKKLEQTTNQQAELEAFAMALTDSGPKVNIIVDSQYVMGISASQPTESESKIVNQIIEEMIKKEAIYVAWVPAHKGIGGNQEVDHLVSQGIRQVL", "sequence (P04584 613-1051, chain 2 of 2)": "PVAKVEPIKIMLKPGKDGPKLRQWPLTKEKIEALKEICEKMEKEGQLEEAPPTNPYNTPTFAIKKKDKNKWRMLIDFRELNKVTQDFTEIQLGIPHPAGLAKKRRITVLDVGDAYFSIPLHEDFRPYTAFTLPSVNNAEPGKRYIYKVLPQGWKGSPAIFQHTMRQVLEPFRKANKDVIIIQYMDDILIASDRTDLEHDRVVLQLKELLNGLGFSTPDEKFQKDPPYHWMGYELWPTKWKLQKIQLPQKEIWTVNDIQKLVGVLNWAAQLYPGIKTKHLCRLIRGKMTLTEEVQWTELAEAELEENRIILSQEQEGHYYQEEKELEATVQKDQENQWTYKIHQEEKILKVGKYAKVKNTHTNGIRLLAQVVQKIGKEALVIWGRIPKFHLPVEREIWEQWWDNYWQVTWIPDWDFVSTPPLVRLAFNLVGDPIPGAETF"}, "[4]": {"molecular_target": "T1, HIV-1 reverse transcriptase p66/p51", "remark": "listed apart in the source"}}, "data": [{"binder": "CGUGU (ssRNA)", "note": "[Hex-S3R pentamer, 5'-shortened]", "values": [{"measurement": "binding result", "setting": "[1]", "result": "no binding"}]}, {"binder": "UCGUG (ssRNA)", "note": "[Hex-S3R pentamer, 3'-shortened]", "values": [{"measurement": "binding result", "setting": "[1]", "result": "no binding"}]}, {"binder": "CGACCG (XNA, fully 2'-OMe)", "note": "[Hex-S1D-2'OMe]", "values": [{"measurement": "binding signal", "setting": "[2]", "result": "0.5 ± 0.1 relative binding (unit not printed)"}]}, {"binder": "TCGTGT (XNA, phosphorothioate)", "note": "[Hex-S3D-PS]", "values": [{"measurement": "binding signal", "setting": "[3]", "result": "24.9 ± 3.6 relative binding (unit not printed)"}, {"measurement": "binding signal", "setting": "[2]", "result": "52.8 ± 9.8 relative binding (unit not printed)"}]}, {"binder": "CGACCG (XNA, phosphorothioate)", "note": "[Hex-S1D-PS]", "values": [{"measurement": "binding signal", "setting": "[3]", "result": "6.6 ± 1.7 relative binding (unit not printed)"}, {"measurement": "binding signal", "setting": "[2]", "result": "18.3 ± 6 relative binding (unit not printed)"}]}, {"binder": "TCGTGT (XNA, fully 2'-OMe)", "note": "[Hex-S3D-2'OMe]", "values": [{"measurement": "binding signal", "setting": "[2]", "result": "2 ± 0.1 relative binding (unit not printed)"}]}, {"binder": "UCGUGU (XNA, 4-thio-U at position 4)", "note": "[4-thioU-Hex-S3R]", "values": [{"measurement": "binding signal", "setting": "[2]", "result": "9.8 ± 0.5 relative binding (unit not printed)"}]}, {"binder": "TCGTGT (ssDNA)", "note": "[Hex-S3D]", "values": [{"measurement": "binding signal", "setting": "[2]", "result": "8.1 ± 1 relative binding (unit not printed)"}]}, {"binder": "TCGTGT (XNA, LNA at position 1)", "note": "[Hex-S3D-LNA]", "values": [{"measurement": "binding signal", "setting": "[2]", "result": "4.3 ± 0.4 relative binding (unit not printed)"}]}, {"binder": "CGACCG (ssDNA)", "note": "[Hex-S1D]", "values": [{"measurement": "binding signal", "setting": "[2]", "result": "5.8 ± 0.6 relative binding (unit not printed)"}]}, {"binder": "UCGUGU (ssRNA)", "note": "[Hex-S3R]", "values": [{"measurement": "Kd", "setting": "[4]", "result": "5.3 ± 0.5", "unit": "µM"}]}]}
